The Kd is the constant that tells how readily two partners part at equilibrium.

The experiment has as its target human IL‐4Rα (human, UniProt P24394 26-232, N‐glycosylation sites (modelled in the crystal structure; positions not given)). As to the kind of experiment: ITC. (ITC needs no label: the signal is the heat of the interaction.)

B1: dAb1 (VHH)
VHH: QVQLVESGGGLVQPGGSLRLSCAASGDFYCMAWFRQAPGKEREAVAAIRSGGRSTYYADSVKGRFTISRDNSKNTLYLQMNSLKAEDTAVYYCAVGVDGNCRNYWGQGTLVTVSS
Molecule B1 displayed a Kd of 2.55 nM.

The values above are taken from article PMC11381654 (2020).
